Series [1] deals with the molecule itself. Briefly: cryo-EM structure.
Series [2] concerns the molecule itself. Briefly: cryo-EM structure. This is another data set of the same source.

Read-outs that look alike come from different tables or passages of the source.

The source of these data is doi:10.1101/2020.05.11.089193 (bioRxiv, 2020).

B1: Porphyromonas gingivalis ATCC 33277 PorM (natural protein, UniProt B2RLE8 1-516, looked up)
chain: MAVGSNGNANRQKMINLMYLVFIAMMALNVSSEVLDGFDKVDKSLTSSIDGSDKRNNLVLSELNTAYRTNPEKVKVWYERSLVLQKEADSLCTFIDDLKLAIARESDGKDAKVNDIRRKDNLDASSVVMLNPINGKGSTLRKEVDKFRELVATLMTDKAKLKLIEQALNTESGTKGKSWESSLFENMPTVAAITLLTKLQSDVRYAQGEVLADLVKSVDVGDYRVNSITAQVIPQSQIVMSGDTYKANIVLSSVDTTQRPDVFVNGKLLSPENMGLFTATAGAPGTYPVKGYIEMMGNDGVKIRRDFESEYFVTEPMASVAPTMMNVLYAGIDNPINIAVPGVAQQNVSATINNGTLTRRGNLWIARPTKVGSEAIISVTAQSGGRTIQMAKTTLRVRALPDPLPYIEYKDVQGNTKRFKGGRLGKREILAAGGIKAALDDDLLEVNYTVVKFQLVFYDSMGNSIPEVSDGASFSERQKRQIQNLGKGKRFYVTEVIARGPDGIERKIPAIEVIVN
A word on the stoichiometry N: it is the number of molecules, sites or subunits per partner or assembly. As to B1, in series [1], the “stoichiometry N” value turned out to be 2.

B2: Flavobacterium johnsoniae GldL (natural protein, UniProt Q5EGM4 1-215, looked up)
chain: MALLSKKVMNFAYGMGAAVVIVGALFKITHFEIGPLTGTVMLSIGLLTEALIFALSAFEPVEDELDWTLVYPELANGQARKKEAKAETATDAQGLLSQKLDAMLKEAKVDGELMASLGNSIKNFEGAAKAISPTVDSIAGQKKYAEEMSMAAAQMESLNSLYKVQLESASRNAQANSEIAENAAKLKEQMASMTANIASLNSVYGGMLSAMSNKG
Turning to B2, the “stoichiometry N” value in series [2] was 5.

B3: Flavobacterium johnsoniae GldM C-terminally truncated after the first folded periplasmic domain (first 225 amino acids) (domain or fragment, UniProt Q5EGM3 1-225, looked up)
chain: MAGGKLTPRQKMINLMYLVFIAMLAMNVSKEVISAFGLMNEKFEAANTSSVTTNESLLTSLDQKAAEAKGEFAKAAETAHKVQAASKEFYDYIGTLKTQAVKGFEVDKETGKMPYEAMDRGDNIDDWFTGDGYTKKGNEIIAKIEKYKSDIKAALGTDKKYAGIISEVEKKFDVSDVKNKEGIKEKYLAYHFKGFPAIASAAKLSAWQNDVKKTEADVYNSALGK
For the protein B3, the “stoichiometry N” value in series [2] came out at 2.
